Source: US20240158509A1 (MOMENTA PHARMACEUTICALS, published 2024)

Experiments:
[1] = target: T1, endogenous cynomolgus monkey FcRn in monocytes (cynomolgus monkey, UniProt Q8SPV9 24-365; Q8SPW0 21-119); assay: target occupancy in vivo: monocytes from lysed whole blood of cynomolgus monkeys after one i.v. dose, fixed and permeabilized, unoccupied FcRn stained with Dy650-labeled N027, FACS
T1 construct: whole, on cells; Target occupancy was measured ex vivo by FACS on fixed and permeabilized monocytes
T1 sequence (Q8SPV9 24-365, chain 1 of 2): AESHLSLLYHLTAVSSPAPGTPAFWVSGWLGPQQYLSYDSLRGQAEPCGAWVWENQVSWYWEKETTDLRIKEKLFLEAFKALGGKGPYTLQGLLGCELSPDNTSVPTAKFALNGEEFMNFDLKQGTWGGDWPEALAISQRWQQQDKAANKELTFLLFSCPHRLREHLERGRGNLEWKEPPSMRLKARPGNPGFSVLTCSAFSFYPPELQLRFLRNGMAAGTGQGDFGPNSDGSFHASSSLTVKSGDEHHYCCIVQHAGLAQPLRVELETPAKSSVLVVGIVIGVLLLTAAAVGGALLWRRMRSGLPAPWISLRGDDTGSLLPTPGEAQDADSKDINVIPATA
T1 sequence (Q8SPW0 21-119, chain 2 of 2): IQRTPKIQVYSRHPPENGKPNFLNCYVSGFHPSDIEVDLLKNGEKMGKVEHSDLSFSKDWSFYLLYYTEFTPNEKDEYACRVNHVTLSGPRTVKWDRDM

[2] = target: endogenously expressed human FcRn (human, UniProt P55899 24-365; P61769 21-119); assay: cell-based or functional assay
Chain of endogenously expressed human FcRn (P55899 24-365, chain 1 of 2): as the sequence (Q8SPV9 24-365, chain 1 of 2) above, with D39N, Q44E, S99G, G189S, N190S, M217L, T269S, S319V, S332L, I335V counted along it
Chain of endogenously expressed human FcRn (P61769 21-119, chain 2 of 2): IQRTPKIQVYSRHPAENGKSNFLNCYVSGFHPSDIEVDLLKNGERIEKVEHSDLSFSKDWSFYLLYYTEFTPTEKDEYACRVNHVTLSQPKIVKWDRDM

B1: N027 (antibody, human IgG1, lambda, N297A)
heavy: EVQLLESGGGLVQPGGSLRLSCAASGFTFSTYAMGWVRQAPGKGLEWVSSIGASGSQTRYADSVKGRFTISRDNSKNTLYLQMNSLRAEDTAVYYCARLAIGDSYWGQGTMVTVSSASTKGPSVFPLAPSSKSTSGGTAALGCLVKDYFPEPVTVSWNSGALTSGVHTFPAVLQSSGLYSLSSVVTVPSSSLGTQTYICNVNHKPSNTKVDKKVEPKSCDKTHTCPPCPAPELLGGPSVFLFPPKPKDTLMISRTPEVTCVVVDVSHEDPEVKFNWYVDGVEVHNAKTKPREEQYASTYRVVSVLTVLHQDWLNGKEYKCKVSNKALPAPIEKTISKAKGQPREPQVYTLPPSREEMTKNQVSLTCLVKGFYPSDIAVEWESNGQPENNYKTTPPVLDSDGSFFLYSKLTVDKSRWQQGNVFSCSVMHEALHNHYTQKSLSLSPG
light: QSALTQPASVSGSPGQSITISCTGTGSDVGSYNLVSWYQQHPGKAPKLMIYGDSERPSGVSNRFSGSKSGNTASLTISGLQAEDEADYYCSSYAGSGIYVFGTGTKVTVLGQPKAAPSVTLFPPSSEELQANKATLVCLISDFYPGAVTVAWKADSSPVKAGVETTTPSKQSNNKYAASSYLSLTPEQWKSHKSYSCQVTHEGSTVEKTVAPTECS
notes: Full-length IgG; In the occupancy assays unlabeled N027 was followed by dye-labeled N027 (Dy650, VivoTag645); DyLight594-N027 was used for imaging; also called M281; anti-FcRn antibody N027
In the case of B1, the binding result [1] is reported as “binds”, the “intracellular IgG accumulation (VivoTag645-IgG, gMFI), ~IC50, HAECs” value [2] is reported as about 0.12 µg/mL and the “intracellular IgG accumulation (VivoTag645-IgG, gMFI), ~IC50, HUVECs” value [2] is reported as about 0.15 µg/mL. For the same binder, the “intracellular IgG accumulation (VivoTag645-IgG, gMFI), ~IC50, HVTs” value [2] was about 0.07 µg/mL.
